One may read the Kd as a measure of binding affinity in units of concentration. Lower therefore signals tighter binding.

Ends that are not written are not given here.

In experiment [1] the target is T1, human ACE2 (human, UniProt Q9BYF1). Kind of experiment: SPR; given as Ka. Background: SPR reads the build-up and loss of mass on a sensor chip optically.
Experiment [2] has as its target T1, human ACE2. Kind of experiment: SPR.
For experiment [3], the target named is T1, human ACE2. Kind of experiment: SPR, 37C.
Experiment [4] has as its target T1, human ACE2. Kind of experiment: SPR, 37C. This is another data set of the same source.

T1 sequence (Q9BYF1 18-740): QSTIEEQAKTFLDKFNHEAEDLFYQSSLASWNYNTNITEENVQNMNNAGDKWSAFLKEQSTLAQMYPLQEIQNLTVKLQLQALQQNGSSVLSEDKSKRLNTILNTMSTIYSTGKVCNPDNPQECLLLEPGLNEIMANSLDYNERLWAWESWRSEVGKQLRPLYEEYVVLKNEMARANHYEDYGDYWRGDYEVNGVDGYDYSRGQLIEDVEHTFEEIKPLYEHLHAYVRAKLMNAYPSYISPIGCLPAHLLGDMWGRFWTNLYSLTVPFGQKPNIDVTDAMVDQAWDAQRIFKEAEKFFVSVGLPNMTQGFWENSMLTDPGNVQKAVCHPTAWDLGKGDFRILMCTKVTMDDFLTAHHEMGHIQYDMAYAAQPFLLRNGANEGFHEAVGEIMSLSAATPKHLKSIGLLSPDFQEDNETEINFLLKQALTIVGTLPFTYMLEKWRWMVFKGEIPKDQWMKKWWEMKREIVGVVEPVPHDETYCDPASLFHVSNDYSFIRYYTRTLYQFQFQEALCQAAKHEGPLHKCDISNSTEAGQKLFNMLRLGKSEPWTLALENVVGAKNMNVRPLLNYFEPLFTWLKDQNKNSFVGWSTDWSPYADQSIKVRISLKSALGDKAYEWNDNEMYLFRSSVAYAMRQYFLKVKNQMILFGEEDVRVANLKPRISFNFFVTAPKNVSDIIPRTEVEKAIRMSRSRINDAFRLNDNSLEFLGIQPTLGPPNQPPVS

Turning to FPIPLPYCWLCRALIKRIQAMIPKGGRMLPQLVCRLVLRCS [Super Mini-B (SMB)], the Kd with human ACE2 [1] is 0.0099 µM; in the experiment with human ACE2 [2], 0.00987 µM.
Regarding FPIPLPYYWLYRALIKRIQALIPKGGRLLPQLVYRLVLRYS (also: biotinylated (site not given here)) [B-YL (biotinylated)], the dissociation constant Kd in the experiment with human ACE2 [3] and with human ACE2 [4] was 4.37 µM in each case.
